Patent US20060253917A1 (published 2006)

B7: OsSGT1 aa 200-368 (other)
chain: QMLSVSIEVPGEEPYHFQPRLFSKIIPEKSRYQVLSTKVEIRLAKAEQITWTSLDYDKKPKAVPQKIIPPAESAQRPSYPSSKSKKDWDKLEAEVKKEEKEEKLEGDAALNKFFRDIYSDADEDMRRAMMKSFVESNGTVLSTNWKDVGSKKVEGSPPDGMELKKWEY
notes: bait, Gal4 DBD fusion; also called PN20285
B8: Os006819-2510 aa 1-273 (other)
chain: MAFRLSNSLLGILNAVTFLLSVPVLGGGIWLATRADGTECERYFSAPVIAFGVFLLLVSLAGLVGACCRVNCLLWFYLVAMFVLIVVLFCFTVFAFVVTNKGAGEAVSGRGYKEYRLGDYSNWLQKRMENSKNWNRIRSCLQDSKVCKKLQDKNWDRTQFFKADLSPLESGCCKPPSSCNFLYVSGTNWTKVPTNSSDPDCNTWVDDGTQLCYNCQSCKAGAVATLKRDWKRVAVVCIVFLVFIVIVYSLGCCAFRNNRRDNRGAYRGAAWKG
notes: bait, Gal4 DBD fusion; also called PN20462
B11: Os006819-2510 aa 1-150 (other)
chain: MAFRLSNSLLGILNAVTFLLSVPVLGGGIWLATRADGTECERYFSAPVIAFGVFLLLVSLAGLVGACCRVNCLLWFYLVAMFVLIVVLFCFTVFAFVVTNKGAGEAVSGRGYKEYRLGDYSNWLQKRMENSKNWNRIRSCLQDSKVCKKL
notes: bait, Gal4 DBD fusion; also called PN20462; Hypothetical Protein 006819-2510, Similar to Senescence-Related Protein 5 from Hemerocallis Hybrid Cultivar

Assays:
[1] = molecular target: B11; experiment: Y2H; input trait library
Procedure, shortened: (§1)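 Using an automated, high-throughput yeast two-hybrid assay provided by Myriad Genetics Inc. (Salt Lake City, Utah), protein-protein interactions were detected. Against either the input trait or the output trait rice prey library, a bait clone encoding a defined amino-acid fragment of a rice protein was screened. The encoding sequences of the prey clones that were retrieved were then compared against databases by BLAST to identify the interacting proteins.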

[2] = molecular target: T1, OsRBCL aa 287-462 (Oryza sativa, UniProt P0C510 287-462); experiment: Y2H; input trait library
T1 construct: prey, AD fusion; also called PN23426; O. sativa Chloroplast Ribulose Bisphosphate Carboxylase, Large Chain
T1 sequence (P0C510 287-462): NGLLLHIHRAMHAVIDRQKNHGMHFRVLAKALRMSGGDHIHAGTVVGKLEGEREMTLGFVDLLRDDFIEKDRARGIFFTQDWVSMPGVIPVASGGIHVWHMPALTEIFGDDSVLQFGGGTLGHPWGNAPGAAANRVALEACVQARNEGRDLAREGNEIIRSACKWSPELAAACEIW
Procedure, shortened: as §1

[3] = molecular target: T2, Os003118-3674 aa 75-149 (Oryza sativa, UniProt Q84VG0 75-148); experiment: Y2H; output trait library
T2 construct: bait, Gal4 DBD fusion; also called PN20551
T2 sequence: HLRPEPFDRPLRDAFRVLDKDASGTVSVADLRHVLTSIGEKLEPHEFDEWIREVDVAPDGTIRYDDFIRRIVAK
Procedure, shortened: as §1

[4] = molecular target: T3, OsEXPB2 aa 80-207 (Oryza sativa, UniProt O24230 80-207); experiment: Y2H; input trait library
T3 construct: prey, AD fusion; also called PN19902; Beta-Expansin EXPB2
T3 sequence: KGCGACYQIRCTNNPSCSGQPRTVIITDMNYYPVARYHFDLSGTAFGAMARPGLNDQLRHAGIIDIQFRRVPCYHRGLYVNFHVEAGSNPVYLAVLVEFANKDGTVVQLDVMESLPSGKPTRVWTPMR
Procedure, shortened: as §1

[5] = molecular target: T4, OsSSS aa 68-270 (Oryza sativa, UniProt A2Y9M4 68-270); experiment: Y2H; input trait library
T4 construct: prey, AD fusion; also called PN19701; Soluble Starch Synthase
T4 sequence: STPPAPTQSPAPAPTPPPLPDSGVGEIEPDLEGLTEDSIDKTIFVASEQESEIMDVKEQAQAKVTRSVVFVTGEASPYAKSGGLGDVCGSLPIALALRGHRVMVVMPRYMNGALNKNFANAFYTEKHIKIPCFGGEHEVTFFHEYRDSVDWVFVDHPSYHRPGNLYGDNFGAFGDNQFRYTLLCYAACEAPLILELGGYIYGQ
Procedure, shortened: as §1

[6] = molecular target: T5, OsSSS aa 97-263 (Oryza sativa, UniProt A2Y9M4 97-263); experiment: Y2H; output trait library
T5 construct: prey, AD fusion; also called PN19701
T5 sequence: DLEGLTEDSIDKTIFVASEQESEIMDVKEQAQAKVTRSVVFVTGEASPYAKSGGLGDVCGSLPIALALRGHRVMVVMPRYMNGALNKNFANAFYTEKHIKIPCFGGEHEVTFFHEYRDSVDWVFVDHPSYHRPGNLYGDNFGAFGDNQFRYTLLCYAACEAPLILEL
Procedure, shortened: as §1

[7] = molecular target: B8; experiment: Y2H; output trait library
Procedure, shortened: as §1

[8] = molecular target: T6, PN24061 aa 34-236 (Oryza sativa, UniProt A2XLV9 34-236); experiment: Y2H; output trait library
T6 construct: prey, AD fusion; also called Auxin induced protein-like
T6 sequence: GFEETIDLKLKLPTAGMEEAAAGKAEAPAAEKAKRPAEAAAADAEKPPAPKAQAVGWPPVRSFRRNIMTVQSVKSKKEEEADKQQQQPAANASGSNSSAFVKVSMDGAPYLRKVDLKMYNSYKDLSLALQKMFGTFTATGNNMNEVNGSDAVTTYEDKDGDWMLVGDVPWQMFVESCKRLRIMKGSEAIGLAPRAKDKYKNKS
Procedure, shortened: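 Protein interactions were tested in an automated, high-throughput yeast two-hybrid screen supplied by Myriad Genetics Inc. Fragments of rice proteins, defined by amino-acid range, served as bait against rice prey clone libraries. Interacting prey clones were retrieved from the output trait library. The sequences encoding the retrieved fragments were compared by BLAST analysis against databases to identify the full-length genes. Each value records whether an interaction was detected.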

[9] = molecular target: T7, OsPN23485 aa 90-243 (Oryza sativa, UniProt Q7XPL2 165-318); experiment: Y2H; output trait library
T7 construct: prey, AD fusion; also called Novel Protein PN23485, Similar to Hordeum vulgare Coproporphyrinogen III Oxidase, chloroplast precursor
T7 sequence: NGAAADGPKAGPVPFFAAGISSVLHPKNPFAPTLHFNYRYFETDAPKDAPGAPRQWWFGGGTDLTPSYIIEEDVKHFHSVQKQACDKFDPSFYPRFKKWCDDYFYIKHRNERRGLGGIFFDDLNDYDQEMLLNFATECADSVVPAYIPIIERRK
Procedure, shortened: as §1

[10] = molecular target: B7; experiment: Y2H; input trait library
Procedure, shortened: as §1

[11] = molecular target: T8, OsEXPB2 aa 80-218 (Oryza sativa, UniProt O24230 80-218); experiment: Y2H; input trait library
T8 construct: prey, AD fusion; also called PN19902
T8 sequence: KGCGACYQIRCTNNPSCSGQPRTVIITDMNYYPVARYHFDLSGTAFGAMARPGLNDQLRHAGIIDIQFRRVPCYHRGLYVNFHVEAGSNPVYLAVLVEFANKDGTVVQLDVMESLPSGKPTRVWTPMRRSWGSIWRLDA
Procedure, shortened: as §1

[12] = molecular target: T9, OsPN23053 aa 1-180 (Oryza sativa, UniProt Q8W0H5 141-320); experiment: Y2H; input trait library
T9 construct: prey, AD fusion; also called Novel Protein 23053, Fragment, Similar to Arabidopsis Putative Na+-Dependent Inorganic Phosphate Cotransporter
T9 sequence: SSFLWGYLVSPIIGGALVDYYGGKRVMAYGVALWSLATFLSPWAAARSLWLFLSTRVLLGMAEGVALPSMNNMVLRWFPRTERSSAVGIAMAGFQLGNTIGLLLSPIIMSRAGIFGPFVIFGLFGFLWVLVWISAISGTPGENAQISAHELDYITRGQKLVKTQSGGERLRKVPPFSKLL
Procedure, shortened: as §1

[13] = molecular target: T10, OsAAK01712 aa 90-221 (Oryza sativa, UniProt Q7Y0Y8 90-221); experiment: Y2H; output trait library
T10 construct: prey, AD fusion; also called PN24059; O. sativa Histone Deacetylase HD1
T10 sequence (Q7Y0Y8 90-221): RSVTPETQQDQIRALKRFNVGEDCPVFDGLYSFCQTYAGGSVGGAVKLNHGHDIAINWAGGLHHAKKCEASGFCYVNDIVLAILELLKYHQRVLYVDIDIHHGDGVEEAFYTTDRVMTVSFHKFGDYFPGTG
Procedure, shortened: as §1

[14] = molecular target: B11; experiment: Y2H; output trait library
Procedure, shortened: as §1

[15] = molecular target: T11, Os005792-3529 aa 1-55 (Oryza sativa); experiment: Y2H; output trait library
T11 construct: bait, Gal4 DBD fusion; also called PN20080; Hypothetical Protein 005792-3529 Similar to O. sativa Receptor Kinase
T11 chain: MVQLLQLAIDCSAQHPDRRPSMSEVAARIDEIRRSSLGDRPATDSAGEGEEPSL
Procedure, shortened: as §1

B1: OsPN29037 aa 73-165 (other)
chain: VVFDKDGVLEQIGEGKGYVDMSTVDAATSCKISEAIKQKGGAFVEAPVSGSKKPAEDGQLVILAAGDKVLYDDMVPAFDVLGKKSFFLGEIGN
notes: prey, AD fusion; also called Novel Protein PN29037
B1: binds [1].

B2: OsGF14-c aa 1-150 (other)
chain: MSREENVYMAKLAEQAERYEEMVEYMEKVAKTVDVEELTVEERNLLSVAYKNVIGARRASWRIVSSIEQKEEGRGNEEHVTLIKEYRGKIEAELSKICDGILKLLDSHLVPSSTAAESKVFYLKMKGDYHRYLAEFKTGAERKEAAESTM
notes: bait, Gal4 DBD fusion; also called PN12464; O. sativa 14-3-3 Protein Homolog GF14-c
B2: binds [2].

B3: OsPN23878 aa 824-935 (other)
chain: SLARKHRAAIILQRNLKCWLARRYFVNIRKASVVIQSGIRGCLVRRCAGNVDLLNVLREFESKKEAEGDQILIKASFLAELQRRILKAEATVREKDEENEMLQQRLQQYENR
notes: prey, AD fusion
B3: binds [3].

B4: OsDAD1 aa 1-115 (other)
chain: MPRATSDAKLLIQSLGKAYAATPTNLKIIDLYVVFAVATALIQVVYMGIVGSFPFNSFLSGVLSCIGTAVLAVCLRIQVNKDNKEFKDLPPERAFADFVLCNLVLHLVIMNFLG
notes: bait, Gal4 DBD fusion; also called PN20251
B4: binds [4].

B5: OsCRTC aa 250-425 (other)
chain: PKEIPDPDAKKPEAGADEEDGEWTAPTIRNPEYKGPWKQKKIKNPNYQGKWKPPMIATPDFQDDPYIYAFDSLKSIGIELWQVKSGTLFDNILITDDAALAKTFAEETWAKHKDAEKAAFDEAEKKKEEEEAAKAGEDDDDLDDEDAEDEDKADEKADSDAEDGKDSDDEKHDEL
notes: bait, Gal4 DBD fusion; also called PN20544
B5: binds [5]; binds [6].

B6: OsPN23226 aa 345-432 (other)
chain: WFMSNQETSFVTIGQRVLANPLRVRFHYGHPDIFDRLFHLTRGGVSKASKIINLSEDIFAGFNSTLREGNVTHHEYMQVGKGRDVGLN
notes: prey, AD fusion; also called Novel Protein PN23226, Callose synthase
B6: binds [7].

B7: binds [8].

B8: binds [9].

B9: PN20696 (OsERP) aa 54-144 (other)
chain: ETFMFSVTHNATELIIKLMDSDSGTDDDFVGEATISLEAIYTEGSIPPTVYNVVKEEEYRGEIKVGLTFTPEDDRDRGLSEEDIGGWKQSS
notes: prey, AD fusion; also called Elicitor responsive protein
B9: binds [10].

B10: OsDAD1 aa 30-115 (other)
chain: DLYVVFAVATALIQVVYMGIVGSFPFNSFLSGVLSCIGTAVLAVCLRIQVNKDNKEFKDLPPERAFADFVLCNLVLHLVIMNFLG
notes: bait, Gal4 DBD fusion; also called PN20251; O. sativa Defender Against Apoptotic Death 1
B10: binds [11]; binds [12].

B11: binds [13].

B12: OsPN23878 aa 685-888 (other)
chain: IYEQGLVLQQLKCCGVLEVVRISRSGYPTRMTHQKFARRYGFLLLEDVASQDPLSVSVAILHQFNILPEMYQVGYTKLFFRTGQIGKLEDTRNRTLHGILRVQSCFRGHQARRHARERIRGVLALQSFIRGENARKMYSSLARKHRAAIILQRNLKCWLARRYFVNIRKASVVIQSGIRGCLVRRCAGNVDLLNVLREFESKKE
notes: prey, AD fusion; also called Oryza sativa Putative Myosin (AAL31066.1)
B12: binds [14].

B13: OsPN23829 aa 3-220 (other)
chain: LSVEKTSSGREYKVKDLSQADFGRLEIELAEVEMPGLMACRAEFGPSQPFKGARISGSLHMTIQTAVLIETLTALGAEVRWCSCNIFSTQDHAAAAIARDSAAVFAWKGETLEEYWWCTERCLDWGVGGGPDLIVDDGGDATLLIHEGVKAEEEFEKSGKVPDPESTDNAEFKIVLTIIRDGLKSDPSKYRKMKERLVGVSEETTTGVKRLYQMQETG
notes: prey, AD fusion
B13: binds [15].
